Holding throughout (experiment): fluorescence polarisation; fluorescence anisotropy; β-catenin titrated into 10 nM fluorescein-labelled APC construct; PBS, 1 mM DTT; 15°C; adjusted anisotropy fitted to a Hill equation
The target of assay [1] is APCabc with the flexible linker (FL) inserted between residues 1,478 and 1,479, fluorescein-labelled at Cys 1501 (UniProt P25054).
For assay [2], the target named is APCabc with the flexible linker (FL) inserted between residues 1,500 and 1,501, fluorescein-labelled at Cys 1501 (UniProt P25054).
The target in assay [3] is APCabc with the rigid linker (RL) inserted between residues 1,500 and 1,501, fluorescein-labelled at Cys 1501 (UniProt P25054).
Assay [4] has as its target APCabc, third 20aa repeat (R3) region of APC with subdomains a, b and c, fluorescein-labelled at Cys 1501 (UniProt P25054).
Assay [5] concerns the target pAPCabc D1486S, fluorescein-labelled at Cys 1501 (UniProt P25054).
Assay [6] concerns the target pAPCabc with the flexible linker (FL) inserted between residues 1,478 and 1,479, fluorescein-labelled at Cys 1501 (UniProt P25054).
The target in assay [7] is pAPCabc with the flexible linker (FL) inserted between residues 1,500 and 1,501, fluorescein-labelled at Cys 1501 (UniProt P25054).
Assay [8] has as its target pAPCabc with the polyproline linker (PP) inserted between residues 1,500 and 1,501, fluorescein-labelled at Cys 1501 (UniProt P25054).
For assay [9], the target named is pAPCabc, full-length R3 domain APCabc containing all five phosphomimetics, fluorescein-labelled at Cys 1501 (UniProt P25054).
For assay [10], the target named is pAPCabc D1486S, fluorescein-labelled at Cys 1501 (UniProt P25054). This is another data set of the same source.

Read-outs that look alike come from different tables or passages of the source.

Sequence of armadillo (ARM) repeat domain of human β-catenin (residues 134–671) (P35222 other isoform, or with tags, fused parts or gaps): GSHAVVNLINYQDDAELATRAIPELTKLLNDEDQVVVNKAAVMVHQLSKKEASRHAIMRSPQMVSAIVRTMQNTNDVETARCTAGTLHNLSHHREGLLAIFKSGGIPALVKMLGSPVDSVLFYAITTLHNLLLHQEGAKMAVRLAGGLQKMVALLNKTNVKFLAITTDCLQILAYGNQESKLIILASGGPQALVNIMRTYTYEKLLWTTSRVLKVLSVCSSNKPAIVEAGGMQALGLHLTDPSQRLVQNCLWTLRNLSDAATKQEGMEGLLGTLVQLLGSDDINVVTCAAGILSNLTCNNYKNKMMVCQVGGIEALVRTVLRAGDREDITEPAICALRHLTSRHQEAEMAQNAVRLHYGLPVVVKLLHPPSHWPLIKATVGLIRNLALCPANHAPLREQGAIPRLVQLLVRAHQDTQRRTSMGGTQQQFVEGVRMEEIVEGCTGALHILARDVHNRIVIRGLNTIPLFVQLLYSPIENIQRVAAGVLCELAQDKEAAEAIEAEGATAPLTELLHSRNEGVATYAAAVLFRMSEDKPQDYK

On to “armadillo (ARM) repeat domain of human β-catenin (residues 134–671) (from UniProt P35222 134-671) (domain or fragment)”, for which the dissociation constant (Kd) in assay [1] turned out to be 21.5 nM; in assay [2] it was 28.3 nM; in assay [3], 31.2 nM; in assay [4], 16.5 nM; in assay [5], 21.4 nM; in assay [6], 18.7 nM. Moreover, the Kd amounted to 10.9 nM in assay [7], 16.4 nM in [8], 5.3 nM in [9] and 30 nM in assay [10].
